Laboratory results as given in US6713606.

Biological target: T1, purified human Lysn-Plasminogen, P00747
T1 chain: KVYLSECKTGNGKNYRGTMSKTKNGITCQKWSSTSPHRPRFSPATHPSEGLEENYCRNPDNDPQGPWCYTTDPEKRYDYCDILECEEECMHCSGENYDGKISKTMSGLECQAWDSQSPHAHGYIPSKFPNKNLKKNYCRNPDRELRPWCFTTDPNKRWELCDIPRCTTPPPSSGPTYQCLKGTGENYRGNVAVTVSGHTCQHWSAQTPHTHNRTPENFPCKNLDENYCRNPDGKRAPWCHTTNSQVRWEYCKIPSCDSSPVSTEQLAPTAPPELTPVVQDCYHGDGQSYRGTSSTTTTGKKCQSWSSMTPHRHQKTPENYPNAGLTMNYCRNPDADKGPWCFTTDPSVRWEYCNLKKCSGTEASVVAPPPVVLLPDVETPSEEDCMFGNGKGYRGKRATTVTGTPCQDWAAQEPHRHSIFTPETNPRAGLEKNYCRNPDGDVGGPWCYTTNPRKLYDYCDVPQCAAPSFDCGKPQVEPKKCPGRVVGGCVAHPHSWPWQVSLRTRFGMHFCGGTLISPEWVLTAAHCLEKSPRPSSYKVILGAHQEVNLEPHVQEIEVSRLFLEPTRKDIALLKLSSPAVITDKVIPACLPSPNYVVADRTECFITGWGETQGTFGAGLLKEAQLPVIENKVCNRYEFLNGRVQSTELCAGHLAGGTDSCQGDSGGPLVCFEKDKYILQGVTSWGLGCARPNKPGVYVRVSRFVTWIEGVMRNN

B1: thiolated streptokinase (protein)
chain: IAGPEWLLDRPSVNNSQLVVSVAGTVEGTNQDISLKFFEIDLTSRPAHGGKTEQGLSPKSKPFATDSGAMSHKLEKADLLKAIQEQLIANVHSNDDYFEVIDFASDATITDRNGKVYFADKDGSVTLPTQPVQEFLLSGHVRVRPYKEKPIQNQAKSVDVEYTVQFTPLNPDDDFRPGLKDTKLLKTLAIGDTITSQELLAQAQSILNKNHPGYTIYERDSSIVTHDNDIFRTILPMDQEFTYRVKNREQAYRINKKSGLNEEINNTDLISEKYYVLKKGEKPYDPFDRSHLKLFTIKYVDVDTNELLKSEQLLTASERNLDFRDLYDPRDKAKLLYNNLDAFGIMDYTLTGKVEDNHDDTNRIITVYMGKRPEGENASYHLAYDKDRYTEEEREVYSYLRYTGTPIPDNPNDK
plasmin generation in the plasminogen activation assay (S-2251 substrate units): thiolated SK (1 nM), generated plasmin at a nearly linear of 4225 SU/ml
